From patent US20030118612A1 (MAXYGEN, published 2003)

T1: human G-CSF receptor (human, UniProt Q99062 25-836)
T1 sequence (looked up): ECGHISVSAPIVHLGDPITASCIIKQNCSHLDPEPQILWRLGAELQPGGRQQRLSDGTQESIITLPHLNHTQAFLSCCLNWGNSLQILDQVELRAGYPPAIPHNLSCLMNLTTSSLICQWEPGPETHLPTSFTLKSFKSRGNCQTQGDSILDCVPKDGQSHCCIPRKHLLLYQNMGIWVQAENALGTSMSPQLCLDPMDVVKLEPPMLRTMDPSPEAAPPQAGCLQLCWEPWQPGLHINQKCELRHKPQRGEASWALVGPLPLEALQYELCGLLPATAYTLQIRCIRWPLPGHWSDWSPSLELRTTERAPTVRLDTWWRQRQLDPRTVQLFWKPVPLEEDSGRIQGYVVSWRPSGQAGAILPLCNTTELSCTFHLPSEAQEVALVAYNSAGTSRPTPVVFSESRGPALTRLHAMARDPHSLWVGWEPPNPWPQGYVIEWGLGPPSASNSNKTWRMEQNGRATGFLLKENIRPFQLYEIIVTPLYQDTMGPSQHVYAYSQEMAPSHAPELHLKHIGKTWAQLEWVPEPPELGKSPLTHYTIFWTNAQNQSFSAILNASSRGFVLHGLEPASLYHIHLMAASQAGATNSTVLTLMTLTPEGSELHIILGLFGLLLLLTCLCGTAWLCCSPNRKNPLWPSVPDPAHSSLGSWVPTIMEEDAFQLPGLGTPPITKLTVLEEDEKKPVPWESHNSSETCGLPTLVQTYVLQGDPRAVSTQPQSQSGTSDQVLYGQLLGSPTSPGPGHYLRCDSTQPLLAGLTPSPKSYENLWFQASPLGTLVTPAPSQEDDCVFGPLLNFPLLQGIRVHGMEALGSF

B1: G-CSF variant K16/34/40R L3K, non-conjugated (ligand)
chain: TPKGPASSLPQSFLLRCLEQVRKIQGDGAALQERLCATYRLCHPEELVLLGHSLGIPWAPLSSCPSQALQLAGCLSQLHSGLFLYQGLLQALEGISPELGPTLDTLQLDVADFATTIWQQMEELGMAPALQPTQGAMPAFASAFQRRAGGVLVASHLQSFLEVSYRVLRHLAQP
B2: G-CSF variant K16/34/40R S80K, non-conjugated (ligand)
chain: TPLGPASSLPQSFLLRCLEQVRKIQGDGAALQERLCATYRLCHPEELVLLGHSLGIPWAPLSSCPSQALQLAGCLSQLHKGLFLYQGLLQALEGISPELGPTLDTLQLDVADFATTIWQQMEELGMAPALQPTQGAMPAFASAFQRRAGGVLVASHLQSFLEVSYRVLRHLAQP
B3: G-CSF variant K16/34/40R S80K conjugated to SPA-PEG 5000 (ligand)
chain: TPLGPASSLPQSFLLRCLEQVRKIQGDGAALQERLCATYRLCHPEELVLLGHSLGIPWAPLSSCPSQALQLAGCLSQLHKGLFLYQGLLQALEGISPELGPTLDTLQLDVADFATTIWQQMEELGMAPALQPTQGAMPAFASAFQRRAGGVLVASHLQSFLEVSYRVLRHLAQP
modifications: SPA-PEG 5000 conjugated to the available PEGylation sites
B4: G-CSF variant K16/34/40R Q67K conjugated to SPA-PEG 5000 (ligand)
chain: TPLGPASSLPQSFLLRCLEQVRKIQGDGAALQERLCATYRLCHPEELVLLGHSLGIPWAPLSSCPSKALQLAGCLSQLHSGLFLYQGLLQALEGISPELGPTLDTLQLDVADFATTIWQQMEELGMAPALQPTQGAMPAFASAFQRRAGGVLVASHLQSFLEVSYRVLRHLAQP
modifications: SPA-PEG 5000 conjugated to the available PEGylation sites
B5: G-CSF variant K16/34/40R L3K conjugated to SPA-PEG 5000 (ligand)
chain: TPKGPASSLPQSFLLRCLEQVRKIQGDGAALQERLCATYRLCHPEELVLLGHSLGIPWAPLSSCPSQALQLAGCLSQLHSGLFLYQGLLQALEGISPELGPTLDTLQLDVADFATTIWQQMEELGMAPALQPTQGAMPAFASAFQRRAGGVLVASHLQSFLEVSYRVLRHLAQP
modifications: SPA-PEG 5000 conjugated to the available PEGylation sites
B6: G-CSF variant K16/34/40R S76 conjugated to SPA-PEG 5000 (ligand)
chain: TPLGPASSLPQSFLLRCLEQVRKIQGDGAALQERLCATYRLCHPEELVLLGHSLGIPWAPLSSCPSQALQLAGCLKQLHSGLFLYQGLLQALEGISPELGPTLDTLQLDVADFATTIWQQMEELGMAPALQPTQGAMPAFASAFQRRAGGVLVASHLQSFLEVSYRVLRHLAQP
modifications: SPA-PEG 5000 conjugated to the available PEGylation sites
B7: G-CSF variant K16/34/40R S66K, non-conjugated (ligand)
chain: TPLGPASSLPQSFLLRCLEQVRKIQGDGAALQERLCATYRLCHPEELVLLGHSLGIPWAPLSSCPKQALQLAGCLSQLHSGLFLYQGLLQALEGISPELGPTLDTLQLDVADFATTIWQQMEELGMAPALQPTQGAMPAFASAFQRRAGGVLVASHLQSFLEVSYRVLRHLAQP
B8: G-CSF variant K16/34/40R S53K conjugated to SPA-PEG 5000 (ligand)
chain: TPLGPASSLPQSFLLRCLEQVRKIQGDGAALQERLCATYRLCHPEELVLLGHKLGIPWAPLSSCPSQALQLAGCLSQLHSGLFLYQGLLQALEGISPELGPTLDTLQLDVADFATTIWQQMEELGMAPALQPTQGAMPAFASAFQRRAGGVLVASHLQSFLEVSYRVLRHLAQP
modifications: SPA-PEG 5000 conjugated to the available PEGylation sites
B9: G-CSF variant 16R, non-conjugated (ligand)
chain: TPLGPASSLPQSFLLRCLEQVRKIQGDGAALQEKLCATYKLCHPEELVLLGHSLGIPWAPLSSCPSQALQLAGCLSQLHSGLFLYQGLLQALEGISPELGPTLDTLQLDVADFATTIWQQMEELGMAPALQPTQGAMPAFASAFQRRAGGVLVASHLQSFLEVSYRVLRHLAQP
B10: G-CSF variant K16/34/40R E46K, non-conjugated (ligand)
chain: TPLGPASSLPQSFLLRCLEQVRKIQGDGAALQERLCATYRLCHPEKLVLLGHSLGIPWAPLSSCPSQALQLAGCLSQLHSGLFLYQGLLQALEGISPELGPTLDTLQLDVADFATTIWQQMEELGMAPALQPTQGAMPAFASAFQRRAGGVLVASHLQSFLEVSYRVLRHLAQP
B11: G-CSF variant K16/34/40R Q70K, non-conjugated (ligand)
chain: TPLGPASSLPQSFLLRCLEQVRKIQGDGAALQERLCATYRLCHPEELVLLGHSLGIPWAPLSSCPSQALKLAGCLSQLHSGLFLYQGLLQALEGISPELGPTLDTLQLDVADFATTIWQQMEELGMAPALQPTQGAMPAFASAFQRRAGGVLVASHLQSFLEVSYRVLRHLAQP
B12: G-CSF variant K16/34/40R E46K conjugated to SPA-PEG 5000 (ligand)
chain: TPLGPASSLPQSFLLRCLEQVRKIQGDGAALQERLCATYRLCHPEKLVLLGHSLGIPWAPLSSCPSQALQLAGCLSQLHSGLFLYQGLLQALEGISPELGPTLDTLQLDVADFATTIWQQMEELGMAPALQPTQGAMPAFASAFQRRAGGVLVASHLQSFLEVSYRVLRHLAQP
modifications: SPA-PEG 5000 conjugated to the available PEGylation sites
B13: G-CSF variant K16/34/40R S53K, non-conjugated (ligand)
chain: TPLGPASSLPQSFLLRCLEQVRKIQGDGAALQERLCATYRLCHPEELVLLGHKLGIPWAPLSSCPSQALQLAGCLSQLHSGLFLYQGLLQALEGISPELGPTLDTLQLDVADFATTIWQQMEELGMAPALQPTQGAMPAFASAFQRRAGGVLVASHLQSFLEVSYRVLRHLAQP
B14: G-CSF variant K16/34/40R S76, non-conjugated (ligand)
chain: TPLGPASSLPQSFLLRCLEQVRKIQGDGAALQERLCATYRLCHPEELVLLGHSLGIPWAPLSSCPSQALQLAGCLKQLHSGLFLYQGLLQALEGISPELGPTLDTLQLDVADFATTIWQQMEELGMAPALQPTQGAMPAFASAFQRRAGGVLVASHLQSFLEVSYRVLRHLAQP
B15: G-CSF variant K16/34/40R Q70K conjugated to SPA-PEG 5000 (ligand)
chain: TPLGPASSLPQSFLLRCLEQVRKIQGDGAALQERLCATYRLCHPEELVLLGHSLGIPWAPLSSCPSQALKLAGCLSQLHSGLFLYQGLLQALEGISPELGPTLDTLQLDVADFATTIWQQMEELGMAPALQPTQGAMPAFASAFQRRAGGVLVASHLQSFLEVSYRVLRHLAQP
modifications: SPA-PEG 5000 conjugated to the available PEGylation sites
B16: G-CSF without N-terminal Histidine tag conjugated to SPA-PEG 5000 (ligand)
chain: TPLGPASSLPQSFLLKCLEQVRKIQGDGAALQEKLCATYKLCHPEELVLLGHSLGIPWAPLSSCPSQALQLAGCLSQLHSGLFLYQGLLQALEGISPELGPTLDTLQLDVADFATTIWQQMEELGMAPALQPTQGAMPAFASAFQRRAGGVLVASHLQSFLEVSYRVLRHLAQP
modifications: SPA-PEG 5000 conjugated to the available PEGylation sites
B17: G-CSF variant K16/34/40R Q67K, non-conjugated (ligand)
chain: TPLGPASSLPQSFLLRCLEQVRKIQGDGAALQERLCATYRLCHPEELVLLGHSLGIPWAPLSSCPSKALQLAGCLSQLHSGLFLYQGLLQALEGISPELGPTLDTLQLDVADFATTIWQQMEELGMAPALQPTQGAMPAFASAFQRRAGGVLVASHLQSFLEVSYRVLRHLAQP
B18: G-CSF variant K16/34/40R S66K conjugated to SPA-PEG 5000 (ligand)
chain: TPLGPASSLPQSFLLRCLEQVRKIQGDGAALQERLCATYRLCHPEELVLLGHSLGIPWAPLSSCPKQALQLAGCLSQLHSGLFLYQGLLQALEGISPELGPTLDTLQLDVADFATTIWQQMEELGMAPALQPTQGAMPAFASAFQRRAGGVLVASHLQSFLEVSYRVLRHLAQP
modifications: SPA-PEG 5000 conjugated to the available PEGylation sites
B19: G-CSF variant K16/34/40R Q77, non-conjugated (ligand)
chain: TPLGPASSLPQSFLLRCLEQVRKIQGDGAALQERLCATYRLCHPEELVLLGHSLGIPWAPLSSCPSQALQLAGCLSKLHSGLFLYQGLLQALEGISPELGPTLDTLQLDVADFATTIWQQMEELGMAPALQPTQGAMPAFASAFQRRAGGVLVASHLQSFLEVSYRVLRHLAQP
B20: G-CSF variant K16/34/40R S62K, non-conjugated (ligand)
chain: TPLGPASSLPQSFLLRCLEQVRKIQGDGAALQERLCATYRLCHPEELVLLGHSLGIPWAPLKSCPSQALQLAGCLSQLHSGLFLYQGLLQALEGISPELGPTLDTLQLDVADFATTIWQQMEELGMAPALQPTQGAMPAFASAFQRRAGGVLVASHLQSFLEVSYRVLRHLAQP
B21: G-CSF variant K16/34/40R Q77 conjugated to SPA-PEG 5000 (ligand)
chain: TPLGPASSLPQSFLLRCLEQVRKIQGDGAALQERLCATYRLCHPEELVLLGHSLGIPWAPLSSCPSQALQLAGCLSKLHSGLFLYQGLLQALEGISPELGPTLDTLQLDVADFATTIWQQMEELGMAPALQPTQGAMPAFASAFQRRAGGVLVASHLQSFLEVSYRVLRHLAQP
modifications: SPA-PEG 5000 conjugated to the available PEGylation sites
B22: G-CSF variant K16/34/40R S62K conjugated to SPA-PEG 5000 (ligand)
chain: TPLGPASSLPQSFLLRCLEQVRKIQGDGAALQERLCATYRLCHPEELVLLGHSLGIPWAPLKSCPSQALQLAGCLSQLHSGLFLYQGLLQALEGISPELGPTLDTLQLDVADFATTIWQQMEELGMAPALQPTQGAMPAFASAFQRRAGGVLVASHLQSFLEVSYRVLRHLAQP
modifications: SPA-PEG 5000 conjugated to the available PEGylation sites

Target: T1, human G-CSF receptor
Test: cell-based or functional assay

Going from B1 to B2, the “EC50 (% of hG-CSF) non-conjugated” value falls from 50 % of hG-CSF to 10 % of hG-CSF.

Going from B7 to B9, the “EC50 (% of hG-CSF) non-conjugated” value rises from 20 % of hG-CSF to 100 % of hG-CSF.

First: B10
Second: B11
The “EC50 (% of hG-CSF) non-conjugated” value of the first is lower: 10 % of hG-CSF for the first, 30 % of hG-CSF for the second.

Compared with B13, B14 is higher in “EC50 (% of hG-CSF) non-conjugated” value: 5 % of hG-CSF for the first, 50 % of hG-CSF for the second.

Compared with B17, B19 is lower in “EC50 (% of hG-CSF) non-conjugated” value: 10 % of hG-CSF for the first, 1 % of hG-CSF for the second.

With B20 the “EC50 (% of hG-CSF) non-conjugated” value was 10 % of hG-CSF.

B3 and B4 are the same in “EC50 (% of hG-CSF) conjugated to SPA-PEG 5000” value (from here on “EC50 (% of hG-CSF) conjugated”): 0.2 % of hG-CSF for the first, 0.2 % of hG-CSF for the second.

Compared with B5, B6 is lower in “EC50 (% of hG-CSF) conjugated” value: 25 % of hG-CSF for the first, 20 % of hG-CSF for the second.

First: B8
Second: B12
The “EC50 (% of hG-CSF) conjugated” value of the first is lower: 0.5 % of hG-CSF for the first, 1 % of hG-CSF for the second.

Going from B15 to B16, the “EC50 (% of hG-CSF) conjugated” value falls from 20 % of hG-CSF to 0.1 % of hG-CSF.

Compared with B18, B21 is lower in “EC50 (% of hG-CSF) conjugated” value: 2 % of hG-CSF for the first, 0 % of hG-CSF for the second.

With B22 the “EC50 (% of hG-CSF) conjugated” value was 0.5 % of hG-CSF.
